The target in test [1] is T1, membrane-bound extracellular domain of mouse LTβR (mLTβR-CD4TM-GFP) (mouse, UniProt P50284 31-223).
T1 construct: extracellular domain; also called mouse LTβR ecd, CD4TM and GFP; mLThR-GFP; not shown: CD4 transmembrane domain and GFP fused after the extracellular domain
Briefly: flow cytometry on HEK 293T cells transiently transfected with mouse LTβR ecd-CD4TM-GFP (row 'mLTBR GFP'); '0.5 ug/ml' printed at the upper left of the figure; APC-conjugated Fc secondary. The method, then: (§1) To test the binding of the different c-terminal human lymphotoxin heterotrimer constructs to human and mouse LTβR, HEK 293T cells were transiently transfected with cDNA expression vectors encoding cDNA for human or mouse LTβR ecd, CD4TM and GFP. Cells were then incubated with the various human lymphotoxin constructs 363F2, 363F3, or 363F4, washed and stained with APC-conjugated Fc secondary antibody. Mouse (deglycosylated) IgG1 Fc-mouse lymphotoxin-αββ heterotrimer fusion protein 363F1 was also tested. Binding of the lymphotoxin constructs was then assessed by flow cytometry using a Canto II FACS instrument (BD Biosciences) and analyzed using FlowJo software.

The target in test [2] is T2, human LTβR ecd, CD4TM and GFP (human, UniProt P36941 31-227).
T2 construct: extracellular domain; also called hLTβR; hLThR-GFP; not shown: CD4 transmembrane domain and GFP fused after the extracellular domain
Briefly: flow cytometry on HEK 293T cells transiently transfected with human LTβR ecd-CD4TM-GFP (row 'hLTBR GFP'); '0.5 ug/ml' printed at the upper left of the figure; APC-conjugated Fc secondary. The method, then: as §1
On the technique in general: Flow cytometry measures light scatter and fluorescence of single cells or particles in a stream.

T1 sequence (P50284 31-223): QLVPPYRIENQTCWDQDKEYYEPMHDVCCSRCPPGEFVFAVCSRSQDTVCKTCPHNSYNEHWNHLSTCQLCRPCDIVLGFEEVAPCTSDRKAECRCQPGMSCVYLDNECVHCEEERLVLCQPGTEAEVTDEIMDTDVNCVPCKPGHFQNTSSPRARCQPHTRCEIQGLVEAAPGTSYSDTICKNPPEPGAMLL
T2 sequence (P36941 31-227): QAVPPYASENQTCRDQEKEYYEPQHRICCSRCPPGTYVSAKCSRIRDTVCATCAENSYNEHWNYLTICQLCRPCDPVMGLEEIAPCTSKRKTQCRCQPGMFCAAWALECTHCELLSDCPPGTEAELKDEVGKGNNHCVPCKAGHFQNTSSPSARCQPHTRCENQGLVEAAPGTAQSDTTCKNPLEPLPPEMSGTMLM

B1: 363F1 mFc-mLTαββ (Fc fusion)
chain: GCKPCICTVPEVSSVFIFPPKPKDVLTITLTPKVTCVVVDISKDDPEVQFSWFVDDVEVHTAQTQPREEQFASTFRSVSELPIMHQDWLNGKEFKCRVNSAAFPAPIEKTISKTKGRPKAPQVYTIPPPKEQMAKDKVSLTCMITDFFPEDITVEWQWNGQPAENYKNTQPIMDTDGSYFVYSKLNVQKSNWEAGNTFTCSVLHEGLHNHHTEKSLSHSPGKKPAAHLVGYPSKQNSLLWRASTDRAFLRHGFSLSNNSLLIPTSGLYFVYSQVVFSGESCSPRAIPTPIYLAHEVQLFSSQYPFHVPLLSAQKSVYPGLQGPWVRSMYQGAVFLLSKGDQLSTHTDGISHLHFSPSSVFFGAFALLNPELPAAHLIGAWMSGQGLSWEASQEEAFLRSGAQFSPTHGLALPQDGVYYLYCHVGYRGRTPPAGRSRARSLTLRSALYRAGGAYGRGSPELLLEGAETVTPVVDPIGYGSLWYTSVGFGGLAQLRSGERVYVNISHPDMVDYRRGKTFFGAVMVGLNPELPAAHLIGAWMSGQGLSWEASQEEAFLRSGAQFSPTHGLALPQDGVYYLYCHVGYRGRTPPAGRSRARSLTLRSALYRAGGAYGRGSPELLLEGAETVTPVVDPIGYGSLWYTSVGFGGLAQLRSGERVYVNISHPDMVDYRRGKTFFGAVMVG
notes: also called mouse LTαββ; mouse (deglycosylated) IgG1 Fc-mouse lymphotoxin-αββ heterotrimer fusion protein
As for B1, the values for the MFI in test [1] and in test [2] were 4740 and 2260, respectively.

(Values after patent US20180222958A1 (ONCOMED PHARMACEUTICALS, published 2018).)
